Patent US5747447

T1: vitronectin receptor (M21 melanoma cell attachment assay) (Homo sapiens (Human)), P06756
T1 chain 1: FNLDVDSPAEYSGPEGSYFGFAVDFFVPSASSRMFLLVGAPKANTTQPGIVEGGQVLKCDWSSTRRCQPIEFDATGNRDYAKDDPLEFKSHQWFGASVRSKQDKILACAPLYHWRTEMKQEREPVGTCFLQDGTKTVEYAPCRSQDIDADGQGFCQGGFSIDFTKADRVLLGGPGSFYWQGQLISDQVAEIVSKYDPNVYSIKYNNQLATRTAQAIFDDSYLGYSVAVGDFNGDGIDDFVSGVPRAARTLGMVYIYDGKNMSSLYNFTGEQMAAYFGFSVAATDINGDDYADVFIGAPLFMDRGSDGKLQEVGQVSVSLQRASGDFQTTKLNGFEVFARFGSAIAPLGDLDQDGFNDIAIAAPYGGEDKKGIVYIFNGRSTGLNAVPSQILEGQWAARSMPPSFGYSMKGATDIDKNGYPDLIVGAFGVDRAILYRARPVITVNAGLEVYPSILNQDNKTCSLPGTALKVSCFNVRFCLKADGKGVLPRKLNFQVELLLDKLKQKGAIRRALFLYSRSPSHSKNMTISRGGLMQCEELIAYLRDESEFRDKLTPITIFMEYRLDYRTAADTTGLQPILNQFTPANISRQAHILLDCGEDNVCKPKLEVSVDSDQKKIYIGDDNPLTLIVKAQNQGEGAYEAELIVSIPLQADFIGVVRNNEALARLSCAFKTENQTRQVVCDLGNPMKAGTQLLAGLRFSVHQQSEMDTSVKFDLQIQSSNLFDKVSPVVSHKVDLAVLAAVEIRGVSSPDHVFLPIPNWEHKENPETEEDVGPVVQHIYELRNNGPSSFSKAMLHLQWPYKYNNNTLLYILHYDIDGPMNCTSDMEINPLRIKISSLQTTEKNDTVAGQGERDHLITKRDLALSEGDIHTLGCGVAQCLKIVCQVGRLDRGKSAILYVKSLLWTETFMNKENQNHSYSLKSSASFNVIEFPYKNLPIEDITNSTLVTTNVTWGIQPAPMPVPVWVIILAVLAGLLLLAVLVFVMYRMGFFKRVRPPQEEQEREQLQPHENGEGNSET
T1 chain 2: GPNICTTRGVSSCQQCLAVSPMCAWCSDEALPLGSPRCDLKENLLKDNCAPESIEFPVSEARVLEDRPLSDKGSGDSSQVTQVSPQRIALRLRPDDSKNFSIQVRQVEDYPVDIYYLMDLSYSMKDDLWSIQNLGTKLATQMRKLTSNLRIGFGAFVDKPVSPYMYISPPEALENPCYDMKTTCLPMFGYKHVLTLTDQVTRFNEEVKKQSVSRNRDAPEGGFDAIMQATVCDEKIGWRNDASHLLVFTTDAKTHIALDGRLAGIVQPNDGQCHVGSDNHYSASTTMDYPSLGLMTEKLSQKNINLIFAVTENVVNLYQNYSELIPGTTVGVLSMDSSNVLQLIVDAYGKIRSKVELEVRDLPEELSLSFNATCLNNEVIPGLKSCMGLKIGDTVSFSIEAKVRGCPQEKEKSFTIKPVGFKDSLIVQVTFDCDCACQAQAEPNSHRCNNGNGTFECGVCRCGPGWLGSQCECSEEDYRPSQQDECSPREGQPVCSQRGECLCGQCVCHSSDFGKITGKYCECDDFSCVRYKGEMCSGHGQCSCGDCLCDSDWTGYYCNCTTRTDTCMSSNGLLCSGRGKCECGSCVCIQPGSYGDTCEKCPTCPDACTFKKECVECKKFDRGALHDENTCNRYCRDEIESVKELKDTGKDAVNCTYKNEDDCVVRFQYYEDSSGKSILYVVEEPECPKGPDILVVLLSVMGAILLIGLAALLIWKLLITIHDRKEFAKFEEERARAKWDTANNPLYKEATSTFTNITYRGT


Key:
[1] = biological target: T1, vitronectin receptor (M21 melanoma cell …)
[2] = biological target: GP IIb-IIIa on human platelets (human), P08514

Binder | M21 cell attachment to vitronectin [1] [µM] | Appr, IC50 (uM): inhibition of ADP-induced human platelet aggregation [2] [µM]
GCGKGDWPCA (modifications not checked) [analog #3] | > 60 | 
CGKGDWPC (modifications not checked) [analog #5] |  | 5
GCKGDWPCA (modifications not checked) [analog #4] |  | 5
